Values of other authors in patent US20230023414A1, “METHODS AND DEVICES FOR TREATING A DISEASE WITH BIOTHERAPEUTICS” (PROGENITY, INC., priority 2018, published 2023).

B1: emicizumab (antibody, chains of the INN, looked up, V domains shown)
VH: QVQLVQSGSELKKPGASVKVSCKASGYTFTDNNMDWVRQAPGQGLEWMGDINTRSGGSIYNEEFQDRVIMTVDKSTDTAYMELSSLRSEDTATYHCARRKSYGYYLDEWGEGTLVTVSS
VL: DIQMTQSPSSLSASVGDRVTITCKASRNIERQLAWYQQKPGQAPELLIYQASRKESGVPDRFSGSRYGTDFTLTISSLQPEDIATYYCQQYSDPPLTFGGGTKVEIK
VH2: QVQLVESGGGLVQPGGSLRLSCAASGFTFSYYDIQWVRQAPGKGLEWVSSISPSGQSTYYRREVKGRFTISRDNSKNTLYLQMNSLRAEDTAVYYCARRTGREYGGGWYFDYWGQGTLVTVSS
VL2: B1 VL
B2: evolocumab (antibody, chains of the INN, looked up, V domains shown)
VH: EVQLVQSGAEVKKPGASVKVSCKASGYTLTSYGISWVRQAPGQGLEWMGWVSFYNGNTNYAQKLQGRGTMTTDPSTSTAYMELRSLRSDDTAVYYCARGYGMDVWGQGTTVTVSS
VL: ESALTQPASVSGSPGQSITISCTGTSSDVGGYNSVSWYQQHPGKAPKLMIYEVSNRPSGVSNRFSGSKSGNTASLTISGLQAEDEADYYCNSYTSTSMVFGGGTKLTVL
B3: concizumab (antibody, chains of the INN, looked up, V domains shown)
VH: EVQLVESGGGLVKPGGSLRLSCAASGFTFSNYAMSWVRQTPEKRLEWVATISRSGSYSYFPDSVQGRFTISRDNAKNSLYLQMNSLRAEDTAVYYCARLGGYDEGDAMDSWGQGTTVTVSS
VL: DIVMTQTPLSLSVTPGQPASISCKSSQSLLESDGKTYLNWYLQKPGQSPQLLIYLVSILDSGVPDRFSGSGSGTDFTLKISRVEAEDVGVYYCLQATHFPQTFGGGTKVEIK
B4: pegfilgrastim (protein, UniProt P09919 31-207, looked up)
Granulocyte …: TPLGPASSLPQSFLLKCLEQVRKIQGDGAALQEKLVSECATYKLCHPEELVLLGHSLGIPWAPLSSCPSQALQLAGCLSQLHSGLFLYQGLLQALEGISPELGPTLDTLQLDVADFATTIWQQMEELGMAPALQPTQGAMPAFASAFQRRAGGVLVASHLQSFLEVSYRVLRHLAQP
modifications: N-terminal Met, 20 kDa PEG

Details: SC administration

| Molecule | Approved Dosing Info: Bio Avail [%] | Baseline dose: Bioavail. (dose info for non-approved agents from clinical trial information) [%] |
| --- | --- | --- |
| B1 | 85 | – |
| B2 | 82 | – |
| B3 | – | 93.0 |
| B4 | 70 | – |
